Source: article PMC12506977

Target: Tetrahymena Bld10/CEP135 (Tetrahymena thermophila (endogenous in strain SB715))
Assay: cryo-EM structure; single-particle analysis of mechanically disrupted (splayed) centrioles isolated from Tetrahymena, 10 mM Hepes pH 7.5; proximal A-C linker (class 1) with adjacent microtubule triplet regions; focused maps 3.6 to 3.8 Å (B-C junction 3.8 and 4.0 Å, A-B junction 5.8 Å); proteins assigned by fitting AlphaFold2 models of MS-detected proteins (COLORES)

## Tetrahymena Bld10/CEP135 (natural protein)
  stoichiometry N: 2
